Reference: the supplement of paper PMC10724198
± gives the standard deviation of the averaged measurements.

What was measured:
[1] = system: Saccharomyces cerevisiae; assay: protein stability index of tFT-peptide fusion (C-terminal peptide) (PSI (0-1 scale)); higher = more stable (slower turnover)
Method: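 MPS profiling in S. cerevisiae of the tFT-X12 degron library: putative degron peptides plus stable controls, 12 aa, fused to the C-terminus of a sfGFP-mCherry timer. Cells are FACS-sorted into 8 mCherry/sfGFP bins and deep-sequenced. PSI runs from 0 (unstable) to 1 (stable). Backgrounds are wild type, das1Δ and doa10Δ at 30 °C, and wild type, das1Δ, cdc34-1 and cdc53-1 at 37 °C; 2-3 technical replicates each.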

[2] = system: Saccharomyces cerevisiae; assay: as above; settings: genetic background: wild type; temperature: 30 C
[3] = genetic background: cdc34-1, temperature: 37 C
[4] = genetic background: cdc53-1, temperature: 37 C
[5] = genetic background: das1 deletion, temperature: 30 C
[6] = genetic background: das1 deletion, temperature: 37 C
[7] = genetic background: doa10 deletion, temperature: 30 C
[8] = genetic background: wild type, temperature: 30 C
[9] = genetic background: wild type, temperature: 37 C
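Also: PSI is a weighted mean of sequencing reads over stability bins, variants kept only with over 10 reads, mCherry proximal and sfGFP distal, peptide attached via GGGS linker.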

Row | Sequence | protein stability index [1, 3] | protein stability index [1, 4] | protein stability index [1, 5] | protein stability index [1, 6] | protein stability index [1, 7] | protein stability index [1, 8] | protein stability index [1, 9] | protein stability index [2]
1 | RLFSPPVLATPS | 0.654 ± 0.012 | 0.679 ± 0.025 | 0.525 ± 0.031 | 0.696 ± 0.021 | 0.51908 ± 0.00034 | 0.534 ± 0.019 | 0.6477 ± 0.0014 | 0.0111 ± 0.016
2 | RLIAVAGVVVVA | 0.541 ± 0.032 | 0.5509 ± 0.0042 | 0.425 ± 0.025 | 0.5685 ± 0.0055 | 0.3997 ± 0.00095 | 0.431 ± 0.021 | 0.547 ± 0.0055 | 0.477 ± 0.054
3 | RLLSIFKILHVG | 0.526 ± 0.0063 | 0.6593 ± 0.0037 | 0.638 ± 0.013 | 0.705 ± 0.014 | 0.0881 ± 0.028 | 0.0968 ± 0.0051 | 0.1507 ± 0.00028 | 0.188 ± 0.036
4 | RLRHPPRLSTLC | 0.635 ± 0.025 | 0.743 ± 0.00093 | 0.629 ± 0.029 | 0.73873 ± 0.00026 | 0.306 ± 0.018 | 0.338 ± 0.023 | 0.594 ± 0.069 | 0.463 ± 0.0095
5 | RLSTPFTVNHFI | 0.613 ± 0.031 | 0.732 ± 0.035 | 0.696 ± 0.031 | 0.766 ± 0.0088 | 0.155 ± 0.04 | 0.168 ± 0.044 | 0.374 ± 0.044 | 0.312 ± 0.099
6 | RLVPFMAVRVLF | 0.571 ± 0.034 | 0.6204 ± 0.0016 | 0.517 ± 0.013 | 0.6492 ± 0.0023 | 0.413 ± 0.025 | 0.41 ± 0.018 | 0.5719 ± 0.0024 | 0.487 ± 0.044
7 | RRVRVVCVIVAA | 0.286 ± 0.0078 | 0.373 ± 0.009 | 0.238 ± 0.041 | 0.4735 ± 0.0028 | 0.189 ± 0.0071 | 0.221 ± 0.03 | 0.443 ± 0.025 | 0.373 ± 0.071
8 | RSFNVGLELLVW | 0.382 ± 0.026 | 0.395 ± 0.035 | 0.295 ± 0.05 | 0.449 ± 0.0063 | 0.259 ± 0.0039 | 0.297 ± 0.046 | 0.4159 ± 0.001 | 0.398 ± 0.0062
9 | RTWFTYMSIPVW | 0.196 ± 0.012 | 0.204 ± 0.069 | 0.234 ± 0.026 | 0.341 ± 0.01 | 0.189 ± 0.023 | 0.237 ± 0.026 | 0.311 ± 0.0057 | 0.343 ± 0.024
10 | RVFGWIEVEVEG | 0.5179 ± 0.001 | 0.565 ± 0.019 | 0.403 ± 0.023 | 0.5679 ± 0.0026 | 0.346 ± 0.018 | 0.386 ± 0.054 | 0.584 ± 0.007 | 0.489 ± 0.079
11 | RVFRLDRRLQVV | 0.55 ± 0.02 | 0.633 ± 0.041 | 0.509 ± 0.018 | 0.638 ± 0.012 | 0.128 ± 0.012 | 0.154 ± 0.018 | 0.213 ± 0.005 | 0.3 ± 0.0059
12 | RVGSSLIVVYCV | 0.452 ± 0.024 | 0.461 ± 0.017 | 0.264 ± 0.034 | 0.502 ± 0.0096 | 0.207 ± 0.0045 | 0.238 ± 0.023 | 0.427 ± 0.018 | 0.337 ± 0.022
13 | RVLCLVSSLTLF | 0.549 ± 0.013 | 0.592 ± 0.0061 | 0.413 ± 0.027 | 0.612 ± 0.017 | 0.352 ± 0.0058 | 0.388 ± 0.026 | 0.5961 ± 0.00089 | 0.441 ± 0.0073
14 | RWTKMNNLIIEF | 0.693 ± 0.0083 | 0.744 ± 0.0087 | 0.667 ± 0.013 | 0.742 ± 0.042 | 0.678 ± 0.012 | 0.648 ± 0.025 | 0.699 ± 0.026 | 0.7466 ± 0.0064
15 | RWVFAGVGLFVG | 0.691 ± 0.071 | 0.732 ± 0.016 | 0.605 ± 0.0071 | 0.7241 ± 0.0046 | 0.353 ± 0.043 | 0.376 ± 0.025 | 0.598 ± 0.024 | 0.502 ± 0.028
16 | SCFDRQIFVPVC | 0.358 ± 0.0078 | 0.3925 ± 0.001 | 0.302 ± 0.033 | 0.461 ± 0.013 | 0.274 ± 0.0059 | 0.308 ± 0.032 | 0.4173 ± 0.0038 | 0.442 ± 0.013
17 | SDLQVMKLRSVC | 0.717 ± 0.048 | 0.742 ± 0.045 | 0.619 ± 0.025 | 0.714 ± 0.026 | 0.185 ± 0.007 | 0.191 ± 0.013 | 0.456 ± 0.021 | 0.398 ± 0.067
18 | SFFYFVFYYLSF | 0.161 ± 0.042 | 0.17 ± 0.019 | 0.259 ± 0.015 | 0.364 ± 0.017 | 0.253 ± 0.016 | 0.204 ± 0.033 | 0.308 ± 0.01 | 0.2916 ± 0.0027
19 | SFIFFVSCFFIF | 0.274 ± 0.043 | 0.378 ± 0.011 | 0.294 ± 0.029 | 0.451 ± 0.024 | 0.263 ± 0.0092 | 0.266 ± 0.017 | 0.416 ± 0.016 | 0.3325 ± 0.0024
20 | SFLRVRSLISCS | 0.252 ± 0.026 | 0.257 ± 0.035 | 0.223 ± 0.025 | 0.404 ± 0.021 | 0.168 ± 0.0032 | 0.204 ± 0.026 | 0.348 ± 0.013 | 0.294 ± 0.022

Row | Sequence | protein stability index [1, 3] | protein stability index [1, 4] | protein stability index [1, 5] | protein stability index [1, 6] | protein stability index [1, 7] | protein stability index [1, 8] | protein stability index [1, 9] | protein stability index [2]
21 | SFSRLWSLFRCL | 0.462 ± 0.041 | 0.68 ± 0.026 | 0.682 ± 0.014 | 0.752 ± 0.014 | 0.15 ± 0.0057 | 0.13 ± 0.036 | 0.31 ± 0.038 | 0.244 ± 0.00058
22 | SFVCFSYYIVNI | 0.453 ± 0.021 | 0.482 ± 0.005 | 0.377 ± 0.021 | 0.564 ± 0.022 | 0.381 ± 0.023 | 0.363 ± 0.027 | 0.548 ± 0.049 | 0.51 ± 0.03
23 | SFVLLSSFLVFV | 0.249 ± 0.016 | 0.272 ± 0.042 | 0.262 ± 0.02 | 0.39553 ± 9.9e-06 | 0.275 ± 0.0036 | 0.241 ± 0.014 | 0.355 ± 0.0082 | 0.323 ± 0.013
24 | SGFLNVGYLWVC | 0.5625 ± 0.00014 | 0.635 ± 0.0083 | 0.482 ± 0.025 | 0.644 ± 0.017 | 0.149 ± 0.012 | 0.175 ± 0.02 | 0.308 ± 0.02 | 0.239 ± 0.069
25 | SIFLCRLQNLLI | 0.637 ± 0.0071 | 0.742 ± 0.023 | 0.632 ± 0.0083 | 0.734 ± 0.018 | 0.19 ± 0.017 | 0.209 ± 0.035 | 0.407 ± 0.0057 | 0.389 ± 0.077
26 | SILVSIFILAMQ | 0.205 ± 0.029 | 0.311 ± 0.0043 | 0.229 ± 0.043 | 0.412 ± 0.0063 | 0.199 ± 0.008 | 0.219 ± 0.048 | 0.355 ± 0.015 | 0.189 ± 0.019
27 | SIRVIVAVRNIS | 0.621 ± 0.033 | 0.648 ± 0.041 | 0.554 ± 0.023 | 0.663 ± 0.0092 | 0.21 ± 0.015 | 0.239 ± 0.038 | 0.4346 ± 0.0024 | 0.431 ± 0.052
28 | SISVQCSMLRVL | 0.456 ± 0.036 | 0.47 ± 0.0037 | 0.389 ± 0.048 | 0.482 ± 0.0086 | 0.303 ± 0.02 | 0.294 ± 0.018 | 0.387 ± 0.038 | 0.331 ± 0.0089
29 | SLARLRRICFNT | 0.632 ± 0.042 | 0.685 ± 0.0072 | 0.648 ± 0.031 | 0.719 ± 0.023 | 0.254 ± 0.011 | 0.27 ± 0.042 | 0.469 ± 0.021 | 0.3604 ± 0.0024
30 | SLRPFFPPLPRP | 0.631 ± 0.06 | 0.729 ± 0.0088 | 0.69 ± 0.033 | 0.7305 ± 0.0014 | 0.723 ± 0.026 | 0.702 ± 0.031 | 0.7187 ± 0.0031 | 0.666 ± 0.28
31 | SLVPSIFLFRIF | 0.566 ± 0.042 | 0.613 ± 0.0084 | 0.544 ± 0.028 | 0.682 ± 0.0094 | 0.323 ± 0.0096 | 0.307 ± 0.022 | 0.467 ± 0.014 | 0.4516 ± 0.0032
32 | SLVVMGSLWLRI | 0.275 ± 0.15 | 0.162 ± 0.093 | 0.346 ± 0.081 | 0.463 ± 0.024 | 0.468 ± 0.052 | 0.314 ± 0.077 | 0.425 ± 0.07 | 0.415 ± 0.0096
33 | SMGVLITYLVQV | 0.399 ± 0.021 | 0.461 ± 0.012 | 0.324 ± 0.024 | 0.51 ± 0.015 | 0.25 ± 0.007 | 0.288 ± 0.033 | 0.452 ± 0.0061 | 0.45 ± 0.04
34 | SMPWFWFVRGIG | 0.497 ± 0.041 | 0.531 ± 0.0014 | 0.5 ± 0.017 | 0.557 ± 0.0094 | 0.438 ± 0.032 | 0.417 ± 0.013 | 0.5186 ± 0.0039 | 0.461 ± 0.0082
35 | SNFDVRRLLVIQ | 0.616 ± 0.073 | 0.702 ± 0.038 | 0.588 ± 0.021 | 0.697 ± 0.0065 | 0.29 ± 0.0061 | 0.329 ± 0.039 | 0.54 ± 0.014 | 0.455 ± 0.033
36 | SPSTPQALSNFS | 0.679 ± 0.0097 | 0.748 ± 0.015 | 0.657 ± 0.032 | 0.7376 ± 0.0054 | 0.664 ± 0.022 | 0.663 ± 0.025 | 0.715 ± 0.027 | 0.715 ± 0.038
37 | SPTIFLPLFLTS | 0.426 ± 0.026 | 0.415 ± 0.014 | 0.397 ± 0.028 | 0.522 ± 0.016 | 0.621 ± 0.016 | 0.4 ± 0.029 | 0.468 ± 0.0067 | 0.376 ± 0.037
38 | SRARIRLPRILS | 0.648 ± 0.033 | 0.71 ± 0.0083 | 0.661 ± 0.026 | 0.72403 ± 0.00037 | 0.208 ± 0.0047 | 0.225 ± 0.052 | 0.494 ± 0.015 | 0.333 ± 0.024
39 | SSLTFTFAILLY | 0.19 ± 0.026 | 0.188 ± 0.011 | 0.207 ± 0.025 | 0.339 ± 0.015 | 0.369 ± 0.018 | 0.219 ± 0.025 | 0.312 ± 0.052 | 0.339 ± 0.011
